Assay results: CN112390885A (KAIHUI SCIENCE & TECH DEVELOPMENT SHANGHAI CO LTD, dated 2021)
Positions count from the first letter of the chain named.

T1: 人TROP2-his (CAT#10428-H08H-100, Sino biological) (human, UniProt P09758 27-274)
T1 construct: Bought; also called 人TROP2-his抗原; not shown: His tag
T1 sequence (looked up): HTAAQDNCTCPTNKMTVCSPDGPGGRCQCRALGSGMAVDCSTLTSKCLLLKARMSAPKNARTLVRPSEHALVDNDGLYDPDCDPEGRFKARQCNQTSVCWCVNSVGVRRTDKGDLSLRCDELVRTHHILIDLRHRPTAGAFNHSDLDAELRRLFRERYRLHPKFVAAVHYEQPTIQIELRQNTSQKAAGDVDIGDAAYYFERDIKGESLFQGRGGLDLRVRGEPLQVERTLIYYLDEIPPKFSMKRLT

T2: 人源TROP2, full length, on transfected cells (CHOK1-hTROP2 2B2; 293F-TROP2 6F6) (human, UniProt P09758 27-323)
T2 construct: Full-length human TROP2 expressed from pIRES in CHOK1 or HEK293 cells; the host cell is named under assay; also called CHOk1-TROP2; CHOK-TROP2
T2 sequence: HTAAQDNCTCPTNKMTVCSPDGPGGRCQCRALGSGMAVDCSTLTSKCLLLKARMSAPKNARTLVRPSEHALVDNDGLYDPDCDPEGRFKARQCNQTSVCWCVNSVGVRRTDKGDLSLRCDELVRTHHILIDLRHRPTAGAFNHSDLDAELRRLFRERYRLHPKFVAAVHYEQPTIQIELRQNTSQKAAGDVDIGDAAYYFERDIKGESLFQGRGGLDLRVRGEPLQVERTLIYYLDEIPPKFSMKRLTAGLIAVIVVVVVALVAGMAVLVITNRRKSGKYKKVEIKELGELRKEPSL

T3: 食蟹猴TROP2, full length, on CHOK1 cells (CHOK1-cTROP2 2B2C2) (cynomolgus monkey, UniProt P09758 27-323 (human entry))
T3 chain: T2 sequence with M36V, S67N, I204V, M266V, T272S

T4: 人源TROP2-hFc蛋白 (免疫原A; human TROP2 Thr88-Thr274 with human IgG Fc tag) (human, UniProt P09758 88-274)
T4 construct: also called hTROP2-hFc; 人TROP2-hFc蛋白; not shown: human IgG Fc fragment (hFc) of the pCpC vector
T4 sequence: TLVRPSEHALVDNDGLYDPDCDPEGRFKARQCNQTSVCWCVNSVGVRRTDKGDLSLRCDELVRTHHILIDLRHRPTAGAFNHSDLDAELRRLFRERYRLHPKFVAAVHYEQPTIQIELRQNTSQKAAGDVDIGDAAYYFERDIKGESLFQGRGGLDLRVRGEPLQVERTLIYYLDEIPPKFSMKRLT

B1: 嵌合抗体11E8-3 (heavy chain CDR2 DG→EG) (antibody, human IgG1, V domains shown)
VH: QVQLQQSGAELVRPGSSVKISCKASGVAFSTYWMNWVRQRPGQGLEWIGQIYPGEGDTNSNGKFKGKATLTADKSSSTAYMQFSSLTSEDSAVYFCATRIPDHYGSDWGYFDVWGAGTTV
VL: DIVLTQSPASLAVSLGQRATISCRASKSVSTSGYSYMHWYQQKPGQPPKLLIYLASNLESGVPARFSGSGSGTDFTLNIHPVEEEDAATYYCQHSRELPPTFGGGTKLEIK
B2: 嵌合抗体11E8-2 (heavy chain CDR2 DG→SG) (antibody, human IgG1, V domains shown)
VH: B1 VH with E55S
VL: B1 VL
B3: 嵌合抗体11E8(DA,NA) (antibody, V domains shown)
VH: B1 VH with E55D, G56A, G62A
VL: B1 VL
B4: 嵌合抗体11E8 (野生型) (antibody, V domains shown)
VH: B1 VH with E55D
VL: B1 VL
notes: also called 野生型抗体嵌合抗体11E8
B5: TROP2抗体 11E8E6D11 (antibody, V domains shown)
VH: B1 VH with E55D
VL: B1 VL
notes: Mouse hybridoma antibody
B6: 嵌合抗体11E8-4 (heavy chain CDR2 DG→DA) (antibody, human IgG1, V domains shown)
VH: B1 VH with E55D, G56A
VL: B1 VL
notes: Human IgG1/kappa chimera; also called 突变体嵌合抗体11E8-4
B7: 嵌合抗体11E8-1 (heavy chain CDR2 NG→NA) (antibody, human IgG1, V domains shown)
VH: B1 VH with E55D, G62A
VL: B1 VL
notes: Human IgG1/kappa chimera; also called 突变抗体嵌合抗体11E8-1
B8: hRS7 (antibody, V domains shown)
VH: QVQLQQSGSELKKPGASVKVSCKASGYTFTNYGMNWVKQAPGQGLKWMGWINTYTGEPTYTDDFKGRFAFSLDTSVSTAYLQISSLKADDTAVYFCARGGFGSSYWYFDVWGQGSLVTVSS
VL: DIQLTQSPSSLSASVGDRVSITCKASQDVSIAVAWYQQKPGKAPKLLIYSASYRYTGVPDRFSGSGSGTDFTLTISSLQPEDFAVYYCQQHYITPLTFGAGTKVEIKR
B9: hTINA1-H1L1 (antibody, V domains shown)
VH: QVQLVQSGAEVKKPGASVKVSCKASGYTFTTAGMQWVRQAPGQGLEWMGWINTHSGVPKYAEDFKGRVTISADTSTSTAYLQLSSLKSEDTAVYYCARSGFGSSYWYFDVWGQGTLVTVSS
VL: B8 VL with L4M, S20T, I31T, D60S, A100Q, V104L

Experiments:
[1] = biological target: 人源TROP2, full length, on transfected cells (CHOK1-hTROP2 2B2; 293F-TROP2 6F6) (human) (UniProt P09758); assay: FACS on CHOK1-TROP2 cells
[2] = biological target: T1, 人TROP2-his (CAT#10428-H08H-100, Sino …); assay: SPR (Biacore), antibody captured by human Fab capture on CM5, human TROP2-his flowed
[3] = biological target: T2, 人源TROP2, full length, on transfected …; assay: FACS on CHOK1-TROP2 cells (reference antibody)
[4] = biological target: T2, 人源TROP2, full length, on transfected …; assay: FACS on CHOK1-hTROP2 cells
[5] = biological target: T3, 食蟹猴TROP2, full length, on CHOK1 cells …; assay: FACS on CHOK1-cTROP2 cells
[6] = biological target: T4, 人源TROP2-hFc蛋白 (免疫原A; human TROP2 …); assay: ELISA, hTROP2-hFc coated at 1.0 μg/mL
[7] = biological target: T2, 人源TROP2, full length, on transfected …; assay: FACS on CHOK1-TROP2 cells

| Binder | Kd [2] | koff [2] | kon [2] | also measured |
| --- | --- | --- | --- | --- |
| B1 | – | – | – | decrease of maximal MFI against wild-type chimeric 11E8 [1]: 53% |
| B2 | – | – | – | decrease of maximal MFI against wild-type chimeric 11E8 [1]: 23% |
| B3 | 10.3 nM | 0.00107 s⁻¹ | 105000 M⁻¹ s⁻¹ | – |
| B4 | – | – | – | binding result [3]: binds |
| B5 | – | – | – | binding result [4]: binds; binding result [5]: binds; binding result [6]: binds |
| B6 | – | – | – | binding result [7]: binds |
| B7 | – | – | – | binding result [7]: binds |
| B8 | 1.21 nM | 0.000271 s⁻¹ | 225000 M⁻¹ s⁻¹ | – |
| B9 | 20.7 nM | 0.00293 s⁻¹ | 141000 M⁻¹ s⁻¹ | – |
